According to paper PMC6900284:

Biological target: CPSF160;WDR33;CPSF30;Fip1 (human;human;human;human, UniProt Q10570;Q9C0J8;O95639-3;Q6UN15-4 1-1443;1-410;1-178;130-195, |||)
Assay: cryo-EM structure

CPSF160;WDR33;CPSF30;Fip1, sequence (Q10570 whole entry, chain 1 of 4): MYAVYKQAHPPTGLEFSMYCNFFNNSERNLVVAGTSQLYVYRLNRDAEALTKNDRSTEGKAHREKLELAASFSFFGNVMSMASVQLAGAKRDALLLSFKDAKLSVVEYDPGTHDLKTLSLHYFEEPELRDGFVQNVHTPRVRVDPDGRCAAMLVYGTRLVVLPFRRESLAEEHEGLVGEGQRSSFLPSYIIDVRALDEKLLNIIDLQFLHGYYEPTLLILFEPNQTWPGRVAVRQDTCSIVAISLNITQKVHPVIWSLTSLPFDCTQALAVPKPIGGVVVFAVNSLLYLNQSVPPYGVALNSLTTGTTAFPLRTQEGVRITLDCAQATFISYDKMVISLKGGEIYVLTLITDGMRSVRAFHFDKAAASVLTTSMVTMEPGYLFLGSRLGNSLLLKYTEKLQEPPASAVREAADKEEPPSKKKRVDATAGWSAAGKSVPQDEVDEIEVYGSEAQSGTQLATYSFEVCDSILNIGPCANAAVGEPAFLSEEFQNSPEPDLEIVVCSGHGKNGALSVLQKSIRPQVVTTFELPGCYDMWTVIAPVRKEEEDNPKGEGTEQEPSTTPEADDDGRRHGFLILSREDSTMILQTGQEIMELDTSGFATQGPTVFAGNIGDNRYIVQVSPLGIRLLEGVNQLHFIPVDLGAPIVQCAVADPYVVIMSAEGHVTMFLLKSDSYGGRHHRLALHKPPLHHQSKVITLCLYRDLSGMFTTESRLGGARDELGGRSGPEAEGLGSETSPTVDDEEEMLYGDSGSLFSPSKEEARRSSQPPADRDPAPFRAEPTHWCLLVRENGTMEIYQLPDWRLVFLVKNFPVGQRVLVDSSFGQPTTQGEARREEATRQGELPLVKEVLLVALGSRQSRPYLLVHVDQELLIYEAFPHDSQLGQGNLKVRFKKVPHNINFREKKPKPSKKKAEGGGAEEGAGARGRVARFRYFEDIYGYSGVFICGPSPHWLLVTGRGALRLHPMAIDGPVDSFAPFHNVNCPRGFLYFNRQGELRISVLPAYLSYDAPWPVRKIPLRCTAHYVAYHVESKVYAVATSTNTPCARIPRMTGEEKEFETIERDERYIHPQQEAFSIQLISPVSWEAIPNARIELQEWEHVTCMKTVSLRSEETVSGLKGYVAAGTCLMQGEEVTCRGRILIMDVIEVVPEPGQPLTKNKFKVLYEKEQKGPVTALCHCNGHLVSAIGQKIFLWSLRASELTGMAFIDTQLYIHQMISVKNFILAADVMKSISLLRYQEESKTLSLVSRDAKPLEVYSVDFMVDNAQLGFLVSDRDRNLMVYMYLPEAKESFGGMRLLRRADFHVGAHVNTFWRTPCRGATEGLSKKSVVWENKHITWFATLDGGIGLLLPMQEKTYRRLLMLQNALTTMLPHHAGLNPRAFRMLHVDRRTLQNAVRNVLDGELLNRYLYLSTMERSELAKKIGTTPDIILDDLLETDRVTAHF
CPSF160;WDR33;CPSF30;Fip1, sequence (Q9C0J8 1-410, chain 2 of 4): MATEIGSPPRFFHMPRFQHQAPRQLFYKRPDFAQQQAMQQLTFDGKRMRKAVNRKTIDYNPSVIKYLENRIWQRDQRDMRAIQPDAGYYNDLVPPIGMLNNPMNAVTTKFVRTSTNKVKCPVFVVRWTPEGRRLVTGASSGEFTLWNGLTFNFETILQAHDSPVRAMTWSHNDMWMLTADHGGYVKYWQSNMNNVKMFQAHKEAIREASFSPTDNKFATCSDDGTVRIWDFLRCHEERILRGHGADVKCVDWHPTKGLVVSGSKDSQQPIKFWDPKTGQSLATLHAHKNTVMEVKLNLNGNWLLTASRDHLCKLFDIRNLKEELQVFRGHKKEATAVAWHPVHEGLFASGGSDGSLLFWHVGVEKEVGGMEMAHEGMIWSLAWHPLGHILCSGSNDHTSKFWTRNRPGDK
CPSF160;WDR33;CPSF30;Fip1, sequence (O95639 1-178, chain 3 of 4): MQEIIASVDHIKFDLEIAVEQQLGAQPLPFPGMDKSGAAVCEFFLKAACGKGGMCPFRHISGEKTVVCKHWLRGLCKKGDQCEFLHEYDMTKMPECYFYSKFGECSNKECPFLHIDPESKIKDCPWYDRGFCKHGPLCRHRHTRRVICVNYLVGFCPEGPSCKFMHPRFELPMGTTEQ
CPSF160;WDR33;CPSF30;Fip1, sequence (Q6UN15 145-210, chain 4 of 4): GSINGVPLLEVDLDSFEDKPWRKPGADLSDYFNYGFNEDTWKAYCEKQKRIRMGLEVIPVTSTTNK

B1: 10-mer PAS RNA (ssRNA)
RNA: ACAAUAAAGG
- binding result: binds
